Experimental data from patent publication US20090305946A1 (University of California, published 2009).

T1: rat G-protein Gαq in rat hippocampal membranes (rat, UniProt P82471 1-359)
T1 construct: also called Gq
T1 sequence (looked up): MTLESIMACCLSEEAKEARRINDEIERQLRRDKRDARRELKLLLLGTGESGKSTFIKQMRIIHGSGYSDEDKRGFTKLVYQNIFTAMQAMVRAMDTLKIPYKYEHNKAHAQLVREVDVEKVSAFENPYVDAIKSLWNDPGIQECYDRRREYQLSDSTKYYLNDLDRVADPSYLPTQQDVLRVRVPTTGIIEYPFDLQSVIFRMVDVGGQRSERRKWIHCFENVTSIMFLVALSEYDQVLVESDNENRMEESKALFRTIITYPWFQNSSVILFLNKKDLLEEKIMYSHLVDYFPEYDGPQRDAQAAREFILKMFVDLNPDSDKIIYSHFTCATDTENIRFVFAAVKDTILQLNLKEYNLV


Tests used:
[1] = molecular target: T1, rat G-protein Gαq in rat hippocampal …; experiment: stimulation of ^35S-GTPγS binding by the peptide in rat hippocampal membranes
[2] = molecular target: tail-less PS-1 (amino acids 1-430 of PS-1) (human, UniProt P49768 1-430); experiment: co-immunoprecipitation with MAb to the PS-1 loop, Western blot with anti-Go
Excerpt: Verification of the binding of G-protein Gₒ to the cytoplasmic carboxyl terminus of PS-1. A tail-less construct of PS-1 was made in pcDNA3 in which only the cytoplasmic domain of PS-1 immediately following the last TM-domain is deleted (this construct comprises amino acids 1-430). This construct was used to transfect ES (PS-1^{-/-}/PS-2^{-/-}) cells. […] In an identical strategy to the one described above for full-length PS-1, ES (PS-1^{-/-}/PS-2^{-/-}) cells were transfected with cDNAs for tail-less PS-1 and the G-proteins GoA or GoB. Cells extracts were then subjected to immunoprecipitation with PS-1 loop MAb #5232), separated on SDS PAGE and Western blotted with antibodies to Gₒ.
100 μg of extract of ES (PS-1^{-/-}/PS-2^{-/-}) cells co-transfected with cDNAs for tail-less PS-1 and the G-protein GαoA or GαoB were immunoprecipitated with MAb to the large hydrophilic loop of PS-1, followed by Western blot hybridization with affinity purified polyclonal antibody to Gₒ (recognizes both isoforms, GoA and GoB).

| Binder | binding result [1] | binding result [2] |
| --- | --- | --- |
| TDYLVQPFMDQLAFHQFYI (Synthetic peptide; also called residues 21-39 of the C-tail) [PS-1 cytoplasmic peptide C(21-39), last 19 amino acids of the C-tail] | binds |  |
| human G-protein GαoB (other, Co-transfected with PS constructs in ES double-null cells; assayed in detergent extracts; also called GoB; GOB) GCTLSAEERAALERSKAIEKNLKEDGISAAKDVKLLLLGAGESGKSTIVKQMKIIHEDGFSGEDVKQYKPVVYSNTIQSLAAIVRAMDTLGIEYGDKERKADAKMVCDVVSRMEDTEPFSAELLSAMMRLWGDSGIQECFNRSREYQLNDSAKYYLDSLDRIGAADYQPTEQDILRTRVKTTGIVETHFTFKNLHFRLFDVGGQRSERKKWIHCFEDVTAIIFCVALSGYDQVLHEDETTNRMHESLKLFDSICNNKWFTDTSIILFLNKKDIFEEKIKKSPLTICFPEYTGPSAFTEAVAYIQAQYESKNKSAHKEIYTHVTCATDTNNIQFVFDAVTDVIIAKNLRGCGLY |  | no binding |
| KYLPE (Synthetic peptide; also called loop 3; Cytoplasmic Loop 3 peptide) [PS-1 cytoplasmic peptide ic3 (KYLPE)] | binds |  |
